Data: patent US20170267766A1 (PIERRE FABRE MEDICAMENT, published 2017)

How the values were obtained:
[1] = target: T1, soluble recombinant Cynomolgus monkey IGF-1R with C-terminal 10-His tag (produced in house) (Cynomolgus monkey); assay: SPR Biacore X100, single cycle kinetics, His-captured IGF-1R ~160 RU, 1:1 model
T1 construct: extracellular domain; also called Cynomolgus IGF-1R ECD; Macaca IGF-1R
Procedure: (§1) The recognition experiments were run on a Biacore X100 device using a CM5 sensor chip activated by an anti-Tag His antibody (His capture kit GE Healthcare catalogue number 28-9950-56). More than 11000 RU of antibodies are chemically grafted on the carboxymethyldextan matrix using the amine kit chemistry. The experiments were carried out at 25° C. with a flow rate of 30 μl/min using the HBS-EP buffer (GE Healthcare) as the running and sample dilution buffer.
(§2) Solution of a second antibody is either injected in the same conditions on both flowcells or only on the second flowcell. […] At the end of the fifth injection the running buffer was passed in order to define the dissociation rate. The surface was then regenerated with an injection of a 10 mM Glycine, HCl pH 1.5 buffer during 30s.
(§3) The resulting sensorgrams were analysed using the Biaevaluation software with a 1:1 model. […] The quality of the fitting was assessed by a Chi2/Rmax ratio lower than 0.05 RU.

[2] = target: T2, human IGF-1R (native, on cells) (human, UniProt P08069 31-1367); assay: cell-based or functional assay
[3] = target: T2, human IGF-1R (native, on cells); assay: FACS titration, MCF-7
Procedure: (§4) The binding properties of a series of anti-IGF-1R antibodies were evaluated by FACS analyses on the human MCF-7 breast adenocarcinoma cell line (ATCC#HTB-22) using increasing antibody concentrations. For that purpose, cells (1×10⁶ cells/ml) were incubated with anti-IGF-1R antibodies for 20 min. at 4° C. in FACS buffer (PBS, 0.1% BSA, 0.01% NaN₃). They were then washed 3 times and incubated with the appropriate secondary antibody coupled with Alexa 488 for 20 additional minutes at 4° C. in the dark before being washed 3 times in FACS buffer. The binding of anti-IGF-1R antibodies was immediately performed on viable cells which were identified using propidium iodide (that stains dead cells). The maximum of signal intensity obtained with each antibody was designed as Bₘₐₓ and expressed in mean of fluorescence intensity (MFI). The EC₅₀ of binding expressed in molarity (M) was calculated using a nonlinear regression analysis (GraphPad Prims 4.0).

[4] = target: T1, soluble recombinant Cynomolgus monkey …; assay: SPR, common fit of the human and cynomolgus sensorgrams
Procedure: as §1, §2, §3

[5] = target: T2, human IGF-1R (native, on cells); assay: FACS on MCF-7 cells, 4°C; inset table, axis log [M]
Procedure: as §4

[6] = target: T2, human IGF-1R (native, on cells); assay: cell-based or functional assay; remark: listed apart in the source
[7] = target: T3, monkey IGF-1R (on COS-7 cells) (African green monkey); assay: FACS on COS-7 cells, 4°C; inset table, axis log [M]
T3 construct: whole, on cells
Procedure: In order to evaluate the binding of anti-IGF-1R antibodies on monkey IGF-1R, the binding of both murine and chimeric anti-hIGF-1R antibodies was evaluated by FACS analyses on COS-7 cell line using increasing antibody concentrations. Cells (1×10⁶ cells/ml) were incubated with anti-IGF-1R antibodies for 20 minutes at 4° C. in FACS buffer (PBS, 0.1% BSA, 0.01% NaN₃). Then, cells were washed 3 times and incubated with the appropriate secondary antibody coupled with Alexa 488 before being incubated for 20 additional minutes at 4° C. in the dark and finally washed 3 times in FACS buffer. The binding of anti-IGF-1R antibodies was immediately evaluated on viable cells identified using propidium iodide (that stains dead cells). The binding EC₅₀ expressed in molarity (M) was calculated using a nonlinear regression analysis (GraphPad Prims 4.0).

[8] = target: T2, human IGF-1R (native, on cells); assay: FACS titration, hIGF-1R transfected cells
Procedure: Briefly, increasing concentrations of chimeric mAbs were incubated with cells for 20 min at 4° C. in FACS buffer (PBS, 0.1% BSA, 0.01% NaN₃). Cells were then washed 3 times and incubated with the appropriate secondary antibody coupled with Alexa 488 before being incubated for 20 additional minutes at 4° C. in the dark and then washed 3 times in FACS buffer. The binding of anti-IGF-1R antibodies was immediately performed on viable cells which were identified using propidium iodide (that stains dead cells). The binding EC₅₀ expressed in molarity (M) was calculated using a nonlinear regression analysis (GraphPad Prims 4.0).

[9] = target: T3, monkey IGF-1R (on COS-7 cells); assay: cell-based or functional assay
[10] = target: T4, chimerical h/m IGF-1R construct C2 (human/mouse chimera, UniProt Q60751 31-937 (mouse entry)); assay: SPR (Biacore X100), ratio of IGF-1R binding level to c208F2 capture level, supernatants diluted 10 times
T4 construct: soluble form, supernatant
T4 sequence (Q60751 other isoform, or with tags, fused parts or gaps mutant limits assumed): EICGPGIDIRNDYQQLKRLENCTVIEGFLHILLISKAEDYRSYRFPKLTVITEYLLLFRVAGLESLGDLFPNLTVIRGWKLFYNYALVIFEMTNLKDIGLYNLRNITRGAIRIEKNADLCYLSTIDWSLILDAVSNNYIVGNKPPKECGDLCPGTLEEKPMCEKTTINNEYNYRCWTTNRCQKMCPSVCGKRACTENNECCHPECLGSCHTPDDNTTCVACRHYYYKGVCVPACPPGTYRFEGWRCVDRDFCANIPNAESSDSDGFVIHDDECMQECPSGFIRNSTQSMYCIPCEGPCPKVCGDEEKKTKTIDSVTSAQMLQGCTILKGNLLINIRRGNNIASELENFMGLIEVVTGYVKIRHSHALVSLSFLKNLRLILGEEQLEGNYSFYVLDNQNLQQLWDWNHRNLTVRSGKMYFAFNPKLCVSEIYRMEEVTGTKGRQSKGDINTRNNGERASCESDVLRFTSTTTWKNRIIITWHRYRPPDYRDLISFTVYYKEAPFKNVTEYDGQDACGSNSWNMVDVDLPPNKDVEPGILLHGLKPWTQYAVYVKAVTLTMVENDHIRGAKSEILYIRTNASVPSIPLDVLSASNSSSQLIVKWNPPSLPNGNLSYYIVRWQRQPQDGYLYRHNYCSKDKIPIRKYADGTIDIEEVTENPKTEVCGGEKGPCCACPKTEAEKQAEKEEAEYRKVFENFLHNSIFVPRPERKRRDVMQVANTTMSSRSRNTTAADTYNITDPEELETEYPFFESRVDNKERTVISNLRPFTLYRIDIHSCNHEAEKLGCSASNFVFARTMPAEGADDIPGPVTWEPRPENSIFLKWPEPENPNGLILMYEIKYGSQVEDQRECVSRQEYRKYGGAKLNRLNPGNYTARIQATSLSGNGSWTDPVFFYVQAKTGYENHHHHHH

[11] = target: T5, chimerical h/m IGF-1R construct C7 (human/mouse chimera, UniProt P08069 31-932, limits assumed); assay: as above
T5 construct: 17 mouse specific residues

B1: c208F2 (antibody, human IgG1, kappa, V domains shown)
VH: QVQLQQSGPELVKPGASVKMSCKASGYTFTSYYIYWVKQRPGQGLEWLGWIWPGDGSTKYNEKFKDKTTLTADKSSNTAYMFLSSLTSEDSAVYFCASPMITPNYAMDYWGQGASVTVSS
VL: DIQMTQTTSSLSASLGDRVTISCRASQDISKYLNWYQQQPDGTIKLLIYYTSRLHSGVPSRFSGRGSGTDYSLTISNVEQEDIATYFCQQGSTLPYTFGGGTKLEIKR
notes: group G2; also called chimeric 208F2
For B1, the Kd [1] was 0.17 nM, the “% Internalization (MCF-7, 10 µg/ml, 4 h)” value [2] was 83% and the ΔMFI [2] was 288 MFI. It also gave a Bmax [3] of 981 MFI, an EC50 [3] of 0.67 nM and a Kd [4] of 0.22 nM. For the same binder, the EC50 [5] was 0.532 nM, the “hIGF-1R phosphorylation, % of that induced by IGF-1 (MCF-7, Ab 10 µg/ml)” value [6] was under 20% and the EC50 [7] was 0.657 nM. The Bmax [8] was 2010 MFI, the EC50 [8] was 0.32 nM and the “% internalisation” value [9] was 67%. The ΔMFI [9] was 52 MFI, the binding result [10] was “no binding” and the binding result [11] was “binds”.
